According to the Immune Epitope Database (IEDB):

Each sequence was assayed against HLA-A*02:01 (assay: IEDB peptide-MHC binding, cellular MHC/competitive/fluorescence; ≥ and ≤ were set here for values at or beyond the usual limits of such assays). Conditions: source organism: Mammarenavirus machupoense.

Sequence | IC50 [µM]
SVVQALTSL | 9.24

Same assay, conditions: source organism: Mammarenavirus whitewaterense

Sequence | IC50 [µM]
LQFIVFLLL | 51.6

Same assay, conditions: source organism: Vaccinia virus WR

Sequence | IC50 [µM]
LQKFSFKIAI | ≥ 70
LQKVLHVTDT | ≥ 70
LQTIEIIFT | 9.68
LTASGGKVLI | ≥ 70
LTAVEHIPT | ≥ 70
LTAVEHIPTM | 7.83
LTDSLSSQMT | 11.9
LTFLSGGDL | 18.8
LTGSQYYFSM | 5.06
LTKIDTTHV | 14
LTNVVNISTI | ≥ 70
LTSGEYKQCL | 20.2
LTTLSRHIFM | 5.83
LTVSFIDET | ≥ 70
LVATDPDADA | ≥ 70
LVFIKPPLIT | 38.9
LVITKLREHM | ≥ 70
LVIVSDGPPT | ≥ 70
LVKLSSYHVV | 14.4
LVKWPLLNI | 9.21
LVNAIIDSA | 15.6
LVNLIQAKT | 44.2
LVTKYPMDNV | 12.9
LVVSTKGDV | 25.8
MASLLYLIL | 9.14

Sequence | IC50 [µM]
MIKERRQITM | 24.9
MIKVGNCDET | ≥ 70
MIVLITMLSI | 6.16
MIVLPNKVRI | ≥ 70
MLYQLLEAV | 14.9
MQHPREENSI | 27.4
MQRISGSNI | 9.8
MQRISGSNIV | 13
MTENVEEDL | 22.1
MTENVEEDLA | 24.5
MTPENDEEQT | ≥ 70
MVISLLSMIT | 9.75
MVSIDEVAST | 36.8
NAECQPLQL | 14.3
NAKCIEYVT | ≥ 70
NAKCIEYVTL | 38
NAKLTSTET | 8.67
NIGIVLSNT | 14.6
NIGKIIMSL | 7.04
NIHNHMIKV | 6.46
NIIMKTPGNT | 8.14
NIKNDVVIL | ≥ 70
NISTIQESFI | ≥ 70
NIVWEKKSL | 10.9
NMNYSDDYM | 11.2

Sequence | IC50 [µM]
NQCMSANEA | 13.3
NQCMSANEAA | 67.6
NQHNIIVEHL | ≥ 70
NTCLRCSKL | 24.6
NTDSEMDQRL | ≥ 70
NTFPNITLKI | 10.1
NTIDQTANVV | 6.56
NTRDTQQHPI | ≥ 70
NTSLEIEFT | ≥ 70
NVEEDLARNL | ≥ 70
NVILSPPINA | 7.25
NVTNPFDFM | 7.94
NVVSSSTIAT | ≥ 70
PAAMYQYIFL | 5.57
PAVVYSTCT | 5.5
PIIFGESSI | 34.7
PIKFIAEFL | 8.24
PINAPIKTFM | 7.62
PITIENALV | ≥ 70
PIVISKALET | 26.8
PIYYVQKQLV | 18.7
PLITLTNVV | 6.67
PLSKVHGLDV | 37.9
PMNVDNLIM | 17.4
PTASSDSLQT | 16.7

Sequence | IC50 [µM]
PTELKETLL | ≥ 70
PTINKSIYII | 6.11
PTLDNILGI | 6.67
PTLDNILGIL | 63.7
PTMKIFYKHI | ≥ 70
PTMNNAKLT | 19.8
PTNKLQAAV | 6.43
PTNKLQAAVM | 29.5
PTRTLDTAI | ≥ 70
PVDDGPDDET | 15.2
PVHDILSGL | ≥ 70
PVKRIIDSEV | 33.8
PVLPICVRT | 7.3
PVNNNIVLHT | 35.8
PVSKVKSCL | 14.3
PVSTNGKIV | ≥ 70
PVSTNGKIVM | ≥ 70
PVTEDDYKFL | 26.7
PVVFYRSGT | 15.4
QARNIQKIT | 6.7
QIHLYYNSNI | 48.7
QISQCQRINM | 19
QLKGFYMISL | 9.02
QLPMEDNSDI | 38.5
QMNARGVKV | 5.14

Sequence | IC50 [µM]
QQALSSFHTT | 29.1
QQHPIVVLDA | 14.5
QQKCDMPSL | 25
QQKKCKYCI | 38.8
QQPIKKDCMV | 18.5
QTPIQSDAGM | 34.3
RIKIDKLRQI | ≥ 70
RINDDSKSI | 13.4
RIVVYNPST | 6.05
RIVVYNPSTM | ≥ 70
RLSLNRTIVT | 8.65
RQLAKAIIT | 9.8
RQSSCKMAL | 42.7
RTDTTICLSI | 11
RTKIPLSKV | ≥ 70
RTNRNELFQL | 31.2
RTRGPLGIL | 51.3
RVETSPRPTA | 36.5
SADDIQAIM | 12.1
SAKRITESIT | ≥ 70
SANEAAITDA | 10.2
SATESDAIRT | ≥ 70
SATVYGDKI | 12.9
SIDRLSLNRT | 5.1
SILRSIEGEL | 5.85
